Reference: doi:10.1101/2023.06.21.546012 (bioRxiv, 2023)

T1: Tom40 (S. cerevisiae (endogenous in the …, UniProt P23644 1-387))
T1 sequence: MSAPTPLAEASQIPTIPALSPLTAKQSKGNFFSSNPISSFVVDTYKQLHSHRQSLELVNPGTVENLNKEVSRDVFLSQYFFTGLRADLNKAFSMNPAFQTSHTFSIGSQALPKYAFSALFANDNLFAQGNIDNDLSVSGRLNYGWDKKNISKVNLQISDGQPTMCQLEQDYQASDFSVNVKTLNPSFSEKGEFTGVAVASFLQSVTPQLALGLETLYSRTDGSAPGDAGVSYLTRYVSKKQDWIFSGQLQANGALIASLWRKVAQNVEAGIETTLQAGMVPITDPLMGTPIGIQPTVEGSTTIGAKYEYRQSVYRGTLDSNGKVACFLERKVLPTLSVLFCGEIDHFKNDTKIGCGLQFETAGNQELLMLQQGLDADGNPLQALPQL

B1: Tom22 with a C-terminal His10 tag (natural protein)
chain: MVELTEIKDDVVQLDEPQFSRNQAIVEEKASATNNDVVDDEDDSDSDFEDEFDENETLLDRIVALKDIVPPGKRQTISNFFGFTSSFVRNAFTKSGNLAWTLTTTALLLGVPLSLSILAEQQLIEMEKTFDLQSDANNILAQGEKDAAATAN
B2: Tom6 (natural protein)
chain: MDGMFAMPGAAAGAASPQQPKSRFQAFKESPLYTIALNGAFFVAGVAFIQSPLMDMLAPQL
B3: Tom7 (natural protein)
chain: MSFLPSFILSDESKERISKILTLTHNVAHYGWIPFVLYLGWAHTSNRPNFLNLLSPLPSV

Each binder was assayed against T1, Tom40 (assay: cryo-EM structure).

Binding result, binds:
MFGLPQQEVSEEEKRAHQEQTEKTLKQAAYVAAFLWVSPMIWHLVKKQWK (natural protein) [Tom5]
B1
B2
B3
